{"source": "paper PMC9849236", "key": {"SNAP-hGLP1R (human)": {"molecular_target": "SNAP-hGLP1R (human) (UniProt P43220)"}, "SNAPf-mGLP1R (mouse)": {"molecular_target": "SNAPf-mGLP1R (mouse) (UniProt O35659)", "sequence (O35659 22-463)": "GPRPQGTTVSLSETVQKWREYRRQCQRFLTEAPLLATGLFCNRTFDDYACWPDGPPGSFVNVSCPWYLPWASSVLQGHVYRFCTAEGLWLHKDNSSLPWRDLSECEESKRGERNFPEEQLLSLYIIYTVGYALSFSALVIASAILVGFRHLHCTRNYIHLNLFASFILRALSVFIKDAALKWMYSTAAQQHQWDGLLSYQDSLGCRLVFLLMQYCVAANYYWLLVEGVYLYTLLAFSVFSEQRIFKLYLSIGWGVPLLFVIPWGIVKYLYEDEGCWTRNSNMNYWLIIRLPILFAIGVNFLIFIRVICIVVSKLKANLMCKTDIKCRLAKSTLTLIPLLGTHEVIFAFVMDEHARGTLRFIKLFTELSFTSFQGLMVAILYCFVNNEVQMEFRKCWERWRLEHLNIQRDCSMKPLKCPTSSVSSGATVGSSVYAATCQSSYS"}, "hGLP1R-GFP (human)": {"molecular_target": "hGLP1R-GFP (human) (UniProt P43220)"}}}
{"substance": "Exendin4(1-39) (peptide)", "values": [{"measurement": "EC50 of Exendin4-induced cAMP generation (LANCE cAMP assay, transfected AD293 cells, 30 min with ligand + 100 µM IBMX)", "setting": "SNAP-hGLP1R (human)", "result": 8.02, "unit": "pM"}, {"measurement": "EC50 of Exendin4-induced cAMP generation (LANCE cAMP assay, transfected AD293 cells, 30 min with ligand + 100 µM IBMX)", "setting": "SNAPf-mGLP1R (mouse)", "result": 4.22, "unit": "pM"}, {"measurement": "EC50 of Exendin4-induced cAMP generation (LANCE cAMP assay, transfected AD293 cells, 30 min with ligand + 100 µM IBMX)", "setting": "hGLP1R-GFP (human)", "result": 5, "unit": "pM"}]}
